Source: article PMC7097325

Biological target: Influenza A nucleoprotein (NP), wild type (Influenza A virus A/WSN/33 (H1N1), UniProt P15682 1-498)
Assay: EMSA

B1: 24-nt RNA oligomer (ssRNA)
RNA: UUUGUUACACACACACACGCUGUG
binding result: binds
